T1: AcLAPr (recombinant AcLAP, M17 leucine aminopeptidase) (Acanthamoeba castellanii, UniProt A0A060A630)
T1 construct: gene LAP; pCold TF vector, E. coli BL21 (pKJE7), Ni-NTA; N-terminal His6-trigger factor tag removed with thrombin
T1 sequence (A0A060A630 1-579): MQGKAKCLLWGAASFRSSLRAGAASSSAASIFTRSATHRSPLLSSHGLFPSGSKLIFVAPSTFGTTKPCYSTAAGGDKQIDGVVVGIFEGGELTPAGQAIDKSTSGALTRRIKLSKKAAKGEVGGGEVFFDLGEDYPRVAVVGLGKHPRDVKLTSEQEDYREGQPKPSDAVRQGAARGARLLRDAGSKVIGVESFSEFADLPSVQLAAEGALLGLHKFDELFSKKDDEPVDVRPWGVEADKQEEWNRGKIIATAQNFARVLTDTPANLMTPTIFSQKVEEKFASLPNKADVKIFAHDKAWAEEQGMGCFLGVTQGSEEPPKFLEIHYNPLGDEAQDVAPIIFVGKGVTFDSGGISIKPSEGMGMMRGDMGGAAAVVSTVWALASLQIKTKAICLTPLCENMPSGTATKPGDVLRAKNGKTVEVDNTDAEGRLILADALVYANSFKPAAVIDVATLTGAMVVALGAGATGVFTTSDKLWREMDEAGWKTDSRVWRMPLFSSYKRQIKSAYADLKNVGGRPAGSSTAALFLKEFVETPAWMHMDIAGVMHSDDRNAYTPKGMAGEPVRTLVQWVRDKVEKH


Experiments:
[1] = biological target: T1, AcLAPr (recombinant AcLAP, M17 leucine aminopeptidase); test: inhibition of Leu-AMC hydrolysis, fluorometric; type: biochemical
Text: inhibition of Leu-AMC hydrolysis, fluorometric on AcLAPr (recombinant AcLAP, M17 leucine aminopeptidase)

purified protein [2] = substrate: Cc1cc(=O)oc2cc(NC(=O)[C@@H](N)CC(C)C)ccc12; test: purified protein; type: biochemical, Acanthamoeba castellanii; conditions: 50 mM Tris-HCl, 1 mM MnCl2, pH 8.0, 37°C, 25 nM enzyme
purified protein [3] = substrate: Cc1cc(=O)oc2cc(NC(=O)[C@@H](N)CCCNC(=N)N)ccc12; test: purified protein; type: biochemical, Acanthamoeba castellanii; conditions: 50 mM Tris-HCl, 1 mM MnCl2, pH 8.0, 37°C, 25 nM enzyme
purified protein [4] = substrate: CSCC[C@H](N)C(=O)Nc1ccc2c(C)cc(=O)oc2c1; test: purified protein; type: biochemical, Acanthamoeba castellanii; conditions: 50 mM Tris-HCl, 1 mM MnCl2, pH 8.0, 37°C, 25 nM enzyme

| activity at 10 µM [1] [%] | Molecule | Km (purified protein [2]) [µM] | Km (purified protein [3]) [µM] | Km (purified protein [4]) [µM] |
| --- | --- | --- | --- | --- |
| 22.5 ± 1.13 | CC(C)C[C@H](NC(=O)[C@@H](O)[C@H](N)Cc1ccccc1)C(=O)O [bestatin] |  |  |  |
|  | AcLAPr (recombinant AcLAP, M17 leucine aminopeptidase) (Acanthamoeba castellanii) (protein, pCold TF vector, E. coli BL21 (pKJE7), Ni-NTA; N-terminal His6-trigger factor tag removed with thrombin) MQGKAKCLLWGAASFRSSLRAGAASSSAASIFTRSATHRSPLLSSHGLFPSGSKLIFVAPSTFGTTKPCYSTAAGGDKQIDGVVVGIFEGGELTPAGQAIDKSTSGALTRRIKLSKKAAKGEVGGGEVFFDLGEDYPRVAVVGLGKHPRDVKLTSEQEDYREGQPKPSDAVRQGAARGARLLRDAGSKVIGVESFSEFADLPSVQLAAEGALLGLHKFDELFSKKDDEPVDVRPWGVEADKQEEWNRGKIIATAQNFARVLTDTPANLMTPTIFSQKVEEKFASLPNKADVKIFAHDKAWAEEQGMGCFLGVTQGSEEPPKFLEIHYNPLGDEAQDVAPIIFVGKGVTFDSGGISIKPSEGMGMMRGDMGGAAAVVSTVWALASLQIKTKAICLTPLCENMPSGTATKPGDVLRAKNGKTVEVDNTDAEGRLILADALVYANSFKPAAVIDVATLTGAMVVALGAGATGVFTTSDKLWREMDEAGWKTDSRVWRMPLFSSYKRQIKSAYADLKNVGGRPAGSSTAALFLKEFVETPAWMHMDIAGVMHSDDRNAYTPKGMAGEPVRTLVQWVRDKVEKH | 13.51 ± 1.31 | 41.37 ± 0.05 | 3.77 ± 0.46 |

Source: PMC4468156, “Essential Role for an M17 Leucine Aminopeptidase in Encystation of Acanthamoeba castellanii” (PLoS ONE, 2015)
